Results published in patent US11389568B2, “Tyrosine peptide cross-linked biocompatible hydrogel and method of production” (SEOUL NATIONAL UNIVERSITY R&DB FOUNDATION, priority 2016, dated 2022).
Ends that are not written are not given here.

What was measured:
[1] = Swelling test of lyophilized hydrogels in distilled water; type: physicochemical; settings: distilled water at 25° C.
Experimental: Swelling and degradation tests on the hydrogels were conducted by the following procedures. First, HA hydrogels were photocrosslinked with different peptide sequences (YYACAYY (SEQ ID: 4), di-YYACAYY (SEQ ID: 5), YYAYY (SEQ ID: 7), YYCYY (SEQ ID; 8), and YYAHAYY (SEQ ID: 6), 0.1 mM each). Swelling experiments were performed by measuring the increase in weight of the lyophilized hydrogels. Lyophilized hydrogels were placed in 1 mL distilled water at 25° C. The swelling ratio (S %) of hydrogels in distilled water was calculated using S %=[(Wt−W0]/W0)]100, where Wt is the weight of the swollen hydrogel at time t, and W0 is the weight of the dry gel at time 0. Degradation tests were performed by measuring the weights of hydrogels in PBS containing 0.01 mg/mL hyaluronidase at different time points.

[2] = Solubility of the peptide in hydrogel preparation; type: physicochemical
[3] = Storage modulus (G′) by rheometer; type: physicochemical; settings: for storage modulus (G′), comparison in words: at 30 rad/s
Experimental: The crosslinking time and storage modulus (G′) were analyzed using a rheometer. Hydrogel samples with 20 mm diameter and 5 mm thickness were prepared. The crosslinking time was measured over time at an oscillation frequency of 1 Hz and a stress sweep of 10 Pa. The storage modulus was measured at an oscillation frequency of 1 Hz and a stress sweep of 1-100 Pa. All measurements were performed in triplicate and averaged.
Specifically, the storage modulus G′ was obtained by oscillatory shear measurements at room temperature using a constant stress rheometer (Discovery Hybrid Rheometer-3 from TA Instruments, USA). For the measurements, hydrogel samples with a defined shape of 20 mm diameter and 5 mm thickness were prepared. The cured hydrogel was placed on a lower rheometer stage, and an upper rheometer fixture (diameter 20 mm) was lowered until it made contact with the top surface of the sample. The value of G′ was then measured at oscillation frequency 1 Hz in a stress sweep test of 1-100 Pa. This stress sweep was performed in order to determine the limit of the linear viscoelastic range. All the G′ measurements were obtained in triplicate. Error bars in figures represent the standard deviation from the mean value (see FIGS. 7 and 9).
Specifically, it is well known that the mechanical properties of hydrogels are closely related to the crosslinking density. The storage modulus (G′) measured by rheological analysis is a reliable value representing the rigidity of the subjected hydrogel. The G′ of HA-Ty hydrogel without any peptide addition was 156.6 Pa at a strain of 1% at 30 rad/s (see FIG. 10).

[4] = test system: fibroblasts; experiment: Cytotoxicity test by MTT assay; type: cell-based; settings: riboflavin 0.1 μM-10 mM, YC7 0.1 μM-1 mM, 24 hr at 37° C.
Experimental: To investigate the biocompatibility of the hydrogels, fibroblasts were used in a cytotoxicity test. Fibroblasts were seeded with the density of 4×10^4/well in 24 well plates. […] Finally, cell toxicity was evaluated by MTT assay. Fibroblasts were grown with the density of 1×10^5/well in 12 well dishes to test their proliferation in different hydrogels. The grown cells area was scratched using pipette tips to create a wound-like environment and the hydrogels were added to 12 transwells, which were then placed in the dishes where cells had been grown. The proliferation effect of cells was evaluated depending on the degree of cell filling in the scratches.

Substance | storage modulus (G′), comparison in words [3] | further results
di-YYACAYY (YYACAYYYYACAYY; cysteine pairing not given here; also: dimer of YYACAYY) [DYC7, tyrosine-based peptide; the code also labels the HA-Ty hydrogel photocrosslinked with it] | highest G′ | swelling ratio, comparison in words [1]: slightly higher than that of YC7; solubility [2]: partial insolubility; storage modulus (G′) ([3]; strain of 1% at 30 rad/s, peptide 0.1 mM): 297.6 Pa
YYAHAYY [YH7, tyrosine-based peptide; the code also labels the HA-Ty hydrogel photocrosslinked with it] | almost the same G′ as HA-Ty | –
YYAYY [YA5, tyrosine-based peptide; the code also labels the HA-Ty hydrogel photocrosslinked with it] | higher than that of YH7 | –
YYACAYY [YC7, YYACAYY] | – | cytotoxicity [4]: no cytotoxicity
YYCYY [YC5, tyrosine-based peptide; the code also labels the HA-Ty hydrogel photocrosslinked with it] | higher than that of YH7 | –
